Patent US20230359371A1 (MODERNATX, published 2023)

Target: T1, OX40 receptor on mouse CD4+ T-cells (mouse, UniProt P47741 20-272)
T1 sequence (looked up): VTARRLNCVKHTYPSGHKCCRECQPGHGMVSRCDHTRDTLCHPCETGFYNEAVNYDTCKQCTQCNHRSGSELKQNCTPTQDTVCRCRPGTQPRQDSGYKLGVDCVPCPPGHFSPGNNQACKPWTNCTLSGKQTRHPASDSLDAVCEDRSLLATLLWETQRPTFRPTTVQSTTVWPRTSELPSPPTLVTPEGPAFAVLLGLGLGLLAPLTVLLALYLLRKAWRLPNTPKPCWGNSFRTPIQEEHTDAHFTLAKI
Test: cell-based or functional assay

mouse IL-2 production by CD4+ T-cells (IL-2 ELISA), fold over mock-treated or non-translated mRNA control (about 6 ng/ml): ~2 fold
B1: murine OX40L polypeptide expressed from mOX40L_miR122 mRNA (SEQ ID NO: 66) on the surface of B16F10 cells (ligand)
chain: MEGEGVQPLDENLENGSRPRFKWKKTLRLVVSGIKGAGMLLCFIYVCLQLSSSPAKDPPIQRLRGAVTRCEDGQLFISSYKNEYQTMEVQNNSVVIKCDGLYIIYLKGSFFQEVKIDLHFREDHNPISIPMLNDGRRIVFTVVASLAFKDKVYLTVNAPDTLCEHLQINDGELIVVQLTPGYCAPEGSYHSTVNQVPL
